{"source": "patent US20220002423A1", "about": "(GENERAL HOSPITAL, published 2022)", "biological_target": "T1, Amino acid residues 108-127 of human TNFR2 (human)", "T1 sequence (peptide)": "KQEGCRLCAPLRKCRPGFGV", "experiment": "ELISA on TNFR2 peptide fragment; categorical score, 0 lowest to 4 highest affinity", "data": [{"binder": "agonistic TNFR2 antibody TNFRAG1 (antibody, V domains shown, the primary antibodies were detected with secondary antibodies against rodent IgG; also called monoclonal TNFR2 antibody TNFRAG1; TNFR2 agonist antibody) VH: EVQLQQFGAELVKPGASVKISCKASGYTFTDYNIDWVKQSHGKSLEWIGDINPNYDSTSYSQKFRGKATLTVDKSSSTAYMELRSLTSEDTAVYYCARGNSWYFDVWGAGTTVTVSS VL: QIVLTQSPALMSASPGEKVTMTCSASSSVRYMYWYQQKPRSSPKPWIYLTSNLASGVPARFSGSGSGTSYSLTISSMEAEDAATYYCQQWSSNPLTFGAGTKLELK", "values": [{"measurement": "Affinity Score", "value": 2}]}]}
